Results published in patent US20240158494A1 (Biogen, published 2024).

B1: TfR1 ANTIBODY-A HC-H4C hIgG1 Fab′(1C)/LC-L1 hKappa (Fab, V domains shown)
VH: QSLVESGGGLVQPGGSLRLSCKASGIDFSSSGYMCWVRQAPGKGLEWVGCIYTYSSNTYYASWAKGRFTISKTSSTTVYLQMNSLKTEDTAVYYCARGTYGYTGYTYTMGYFSLWGPGTLVTVSS
VL: DIQMTQSPSTLSASVGDRVTITCQASQNINSYLAWYQQKPGKAPKLLIYRASTLASGVPSRFSGSGSGTEFTLTISSLQPDDFATYYCQSYYYSGSSNYNAFGGGTKVEIKR
notes: also called ANTIBODY-A H4C/L1
B2: TfR1 ANTIBODY-A HC-H2C hIgG1 Fab′(1C)/LC-L1 hKappa (Fab, V domains shown)
VH: QSLVESGGGLVQPGGSLRLSCAASGIDFSSSGYMCWVRQAPGKGLEWVGCIYTYSSNTYYAASVKGRFTISKTSSTTVYLQMNSLKTEDTAVYYCARGTYGYTGYTYTMGYFSLWGQGTLVTVSS
VL: DIQMTQSPSTLSASVGDRVTITCQASQNINSYLAWYQQKPGKAPKLLIYRASTLASGVPSRFSGSGSGTEFTLTISSLQPDDFATYYCQSYYYSGSSNYNAFGGGTKVEIKR
notes: also called ANTIBODY-A H2C/L1
B3: TfR1 ANTIBODY-A HC-H4C hIgG1 Fab′(1C)/LC-L0 hKappa (Fab, V domains shown)
VH: QSLVESGGGLVQPGGSLRLSCKASGIDFSSSGYMCWVRQAPGKGLEWVGCIYTYSSNTYYASWAKGRFTISKTSSTTVYLQMNSLKTEDTAVYYCARGTYGYTGYTYTMGYFSLWGPGTLVTVSS
VL: DIQMTQSPSTLSASVGDRVTITCQASQNINSYLAWYQQKPGKAPKLLIYRASSLESGVPSRFSGSGSGTEFTLTISSLQPDDFATYYCQSYYYSGSSNYNAFGGGTKVEIKR
notes: also called ANTIBODY-A H4C/L0
B4: TfR1 ANTIBODY-A HC-H3C hIgG1 Fab′(1C)/LC-L1 hKappa (Fab, V domains shown)
VH: QSLVESGGGLVQPGGSLRLSCKASGIDFSSSGYMCWVRQAPGKGLEWVGCIYTYSSNTYYASWAKGRFTISKDSKNSVYLQMNSLKTEDTAVYYCARGTYGYTGYTYTMGYFSLWGPGTLVTVSS
VL: DIQMTQSPSTLSASVGDRVTITCQASQNINSYLAWYQQKPGKAPKLLIYRASTLASGVPSRFSGSGSGTEFTLTISSLQPDDFATYYCQSYYYSGSSNYNAFGGGTKVEIKR
notes: also called ANTIBODY-A H3C/L1
B5: TfR1 ANTIBODY-A HC-H3C hIgG1 Fab′(1C)/LC-L0 hKappa (Fab, V domains shown)
VH: QSLVESGGGLVQPGGSLRLSCKASGIDFSSSGYMCWVRQAPGKGLEWVGCIYTYSSNTYYASWAKGRFTISKDSKNSVYLQMNSLKTEDTAVYYCARGTYGYTGYTYTMGYFSLWGPGTLVTVSS
VL: DIQMTQSPSTLSASVGDRVTITCQASQNINSYLAWYQQKPGKAPKLLIYRASSLESGVPSRFSGSGSGTEFTLTISSLQPDDFATYYCQSYYYSGSSNYNAFGGGTKVEIKR
notes: also called ANTIBODY-A H3C/L0; TfRANTIBODY-A HC-H3C hIgG1Fab′(1C)/LC-L0 hKappa
B6: TfR1 ANTIBODY-B HC-H4C hIgG1 Fab′(1C)/LC-L2 hKappa (Fab, V domains shown)
VH: QSLVESGGGVVQPGRSLRLSCKASGFSFSNSYWICWVRQAPGKGLEWVGCINTDADSTNYASWARGRFTISKTSSTTVYLQMNSLRAEDTAVYYCARQNNVFDPGYNLWGPGTLVTVSS
VL: ELVLTQSPSTLSASVGDRVTITCRASQNIGSNLAWYQQKPGKAPKLLIYDASKLESGVPSRFSGSGSGTEFTLTISSLQPDDFATYYCQCTVRGGAYGNAFGGGTKVEIKR
notes: also called ANTIBODY-B H4C/L2; exemplary construct (v)
B7: TfR1 ANTIBODY-B HC-H1C hIgG1 Fab′(1C)/LC-L2 hKappa (Fab, V domains shown)
VH: QSLVESGGGVVQPGRSLRLSCAASGFSFSNSYWICWVRQAPGKGLEWVGCINTDADSTNYADSVKGRFTISKDNSKNTVYLQMNSLRAEDTAVYYCARQNNVFDPGYNLWGQGTLVTVSS
VL: ELVLTQSPSTLSASVGDRVTITCRASQNIGSNLAWYQQKPGKAPKLLIYDASKLESGVPSRFSGSGSGTEFTLTISSLQPDDFATYYCQCTVRGGAYGNAFGGGTKVEIKR
notes: also called ANTIBODY-B H1C/L2; TfRANTIBODY-B HC-H1C/LC-L2 hIgG1Fab′(1C)
B8: TfR1 ANTIBODY-B HC-H3C hIgG1 Fab′(1C)/LC-L2 hKappa (Fab, V domains shown)
VH: QSLVESGGGVVQPGRSLRLSCAASGFSFSNSYWICWVRQAPGKGLEWVGCINTDADSTNYASWARGRFTISKDNSKNTLYLQMNSLRAEDTAVYYCARQNNVFDPGYNLWGQGTLVTVSS
VL: ELVLTQSPSTLSASVGDRVTITCRASQNIGSNLAWYQQKPGKAPKLLIYDASKLESGVPSRFSGSGSGTEFTLTISSLQPDDFATYYCQCTVRGGAYGNAFGGGTKVEIKR
notes: also called ANTIBODY-B H3C/L2; TfRANTIBODY-B HC-H3C/LC-L2 hIgG1Fab′(1C)
B9: TfR1 ANTIBODY-B HC-H2C hIgG1 Fab′(1C)/LC-L2 hKappa (Fab, V domains shown)
VH: QSLVESGGGVVQPGRSLRLSCKASGFSFSNSYWICWVRQAPGKGLEWVGCINTDADSTNYADSVKGRFTISKDSSTTVYLQMNSLRAEDTAVYYCARQNNVFDPGYNLWGQGTLVTVSS
VL: ELVLTQSPSTLSASVGDRVTITCRASQNIGSNLAWYQQKPGKAPKLLIYDASKLESGVPSRFSGSGSGTEFTLTISSLQPDDFATYYCQCTVRGGAYGNAFGGGTKVEIKR
notes: also called ANTIBODY-B H2C/L2
B10: TfR1 ANTIBODY-B HC-H4 hIgG1 Fab′(1C)/LC-L2 hKappa (Fab, V domains shown)
VH: QSLVESGGGVVQPGRSLRLSCKASGFSFSNSYWIAWVRQAPGKGLEWVAAINTDADSTNYASWARGRFTISKTSSTTVYLQMNSLRAEDTAVYYCARQNNVFDPGYNLWGPGTLVTVSS
VL: ELVLTQSPSTLSASVGDRVTITCRASQNIGSNLAWYQQKPGKAPKLLIYDASKLESGVPSRFSGSGSGTEFTLTISSLQPDDFATYYCQCTVRGGAYGNAFGGGTKVEIKR
notes: also called ANTIBODY-B H4/L2
B11: TfRANTIBODY-B HC-H4C/LC-L2 (C90S) hIgG1Fab′(1C) (Fab, V domains shown)
VH: QSLVESGGGVVQPGRSLRLSCKASGFSFSNSYWICWVRQAPGKGLEWVGCINTDADSTNYASWARGRFTISKTSSTTVYLQMNSLRAEDTAVYYCARQNNVFDPGYNLWGPGTLVTVSS
VL: ELVLTQSPSTLSASVGDRVTITCRASQNIGSNLAWYQQKPGKAPKLLIYDASKLESGVPSRFSGSGSGTEFTLTISSLQPDDFATYYCQSTVRGGAYGNAFGGGTKVEIKR
notes: also called ANTIBODY-B H4C/L2(C90S); H4C (C90S)/L2

Key:
[1] = target: T1, human transferrin receptor 1 (TfR1), full length, expressed on cells (human, UniProt P02786 1-760); assay: FACS on Ba/F3 cells, purified Fab
T1 construct: also called human TfR1; huTfR

[2] = target: T2, cynomolgus monkey transferrin receptor 1 (TfR1), full length, expressed on cells (cynomolgus monkey, UniProt Q5RDH6 1-760 (Pongo abelii entry)); assay: FACS on Ba/F3 cells, purified Fab
T2 construct: also called cyno TfR1; cyTfR

[3] = target: T1, human transferrin receptor 1 (TfR1), …; assay: FACS on Ba/F3 cells, Fab supernatant
[4] = target: T2, cynomolgus monkey transferrin receptor …; assay: FACS on Ba/F3 cells, Fab supernatant
[5] = target: T3, recombinant cynomolgus monkey TfR1 extracellular domain, His-tagged (cynomolgus monkey, UniProt Q5RDH6 87-760 (Pongo abelii entry)); assay: SPR, TfR1 ECD-His captured, Fab injected, 1:1 fit
T3 construct: also called Cyno TfR1 ECD; cyno TfR1 ECD-His

[6] = target: T4, recombinant human TfR1 extracellular domain, His-tagged (human, UniProt P02786 89-760); assay: SPR, TfR1 ECD-His captured, Fab injected, 1:1 fit
T4 construct: also called Human TfR1 ECD; human TfR1 ECD-His

[7] = target: T1, human transferrin receptor 1 (TfR1), …; assay: FACS on Ba/F3 cells, Fab supernatant; remark: listed apart in the source
[8] = target: T2, cynomolgus monkey transferrin receptor …; assay: FACS on Ba/F3 cells, Fab supernatant; remark: listed apart in the source
[9] = target: T1, human transferrin receptor 1 (TfR1), …; assay: FACS on Ba/F3 cells, purified Fab; remark: listed apart in the source
[10] = target: T2, cynomolgus monkey transferrin receptor …; assay: FACS on Ba/F3 cells, purified Fab; remark: listed apart in the source
[11] = target: T1, human transferrin receptor 1 (TfR1), …; assay: FACS on Ba/F3 cells, Fab supernatant; remark: listed apart in the source
[12] = target: T2, cynomolgus monkey transferrin receptor …; assay: FACS on Ba/F3 cells, Fab supernatant; remark: listed apart in the source
[13] = target: T1, human transferrin receptor 1 (TfR1), …; assay: FACS on Ba/F3 cells, Fab supernatant; remark: listed apart in the source
[14] = target: T2, cynomolgus monkey transferrin receptor …; assay: FACS on Ba/F3 cells, Fab supernatant; remark: listed apart in the source
[15] = target: T1, human transferrin receptor 1 (TfR1), …; assay: FACS on Ba/F3 cells, purified Fab; remark: listed apart in the source
[16] = target: T2, cynomolgus monkey transferrin receptor …; assay: FACS on Ba/F3 cells, purified Fab; remark: listed apart in the source

Binder	EC50 [1] [nM]	EC50 [2] [nM]	EC50 [3] [nM]	EC50 [4] [nM]	Kd [5] [nM]	koff [5] [s⁻¹]	kon [5] [M⁻¹ s⁻¹]	Kd [6] [nM]	koff [6] [s⁻¹]	kon [6] [M⁻¹ s⁻¹]	EC50 [7] [nM]	EC50 [8] [nM]	EC50 [9] [nM]	EC50 [10] [nM]	EC50 [11] [nM]	EC50 [12] [nM]	EC50 [13] [nM]	EC50 [14] [nM]	EC50 [15] [nM]	EC50 [16] [nM]
B1	1.8	2.4	2.2	1.8	2.6	0.0114	4.4e+06	0.91	0.000894	983000										
B2	1.3	3.3	2.6	3.3	3	0.0195	6.56e+06	1.2	0.000947	773000										
B3	1.4	2	1.4	1.8	3.3	0.00583	1.75e+06	0.99	0.000878	887000										
B4	1.5	5.5	2.1	4.5	4.1	0.0106	2.58e+06	1.2	0.00126	1.02e+06										
B5	1.6	5	2.5	2.7	2.5	0.0103	4.1e+06	1.4	0.0012	835000	1.1	1.5								
B6					0.7	0.000279	398000	3.4	0.000767	223000			4.8	2	5.4	1.9	4.7	2.9		
B7					1.3	0.000425	315000	6.7	0.00115	171000	10.1	2.8	8.2	2.3	5.9	2.3	3.8	2.8		
B8					1.7	0.000608	348000	7.4	0.00147	200000			5.5	1.9	7	4	6.8	2.6		
B9					1.1	0.000472	445000	5.8	0.000999	170000			6.5	2.6			3.3	2.2		
B10					2.2	0.000508	228000	11.6	0.00155	134000			9.8	3.4			2.3	4.6		
B11															11.3	3.3			7.3	1.5
